Data published in patent publication US12064464B2, “Plantaricin NC8 alpha beta markedly enhances the effects of antibiotics” (priority 2018, dated 2024).
Entries after “also recorded” stand apart in the source; their conditions may differ.

Legend:
Porphyromonas gingivalis = conditions: references 1, 2; cited from earlier work
[1] = tested on: S. epidermidis RP62A biofilms; assay: Bacterial biofilm disruption; format: cell-based, Staphylococcus epidermidis; conditions: 1 h
Experimental: S. epidermidis RP62A was inoculated into 5 ml of LB broth and incubated on a shaker at 37° C. overnight. The bacterial culture was diluted 1:100 into fresh media and 100 μl of bacterial suspension per well was added in a 96-well microtiter plate and incubated statically at 37° C. for 20 h. The wells were washed three times by submerging the plate into a container with distilled water to remove unattached cells. Fresh LB media was added to each well (100 μl) followed by addition of the peptides in different concentrations. The plate was incubated statically for 1 h. Detached material in the wells were transferred to a new microtiter plate for absorbance measurements at 620 nm. The remaining attached biofilms were stained with 0.1% crystal violet for 15 min before the plate was washed four times in distilled water as mentioned above and allowed to dry at room temperature for 2 h. The crystal violet was solubilized in 30% acetic acid for 15 min and the absorbance quantified at 550 nm. Each experiment, with three replicates, was repeated three times.

[2] = references 1, 2; cited from earlier work
S. epidermidis 117 = assay: Broth microdilution MIC/MBC; format: cell-based, Staphylococcus epidermidis; conditions: Table 1, peptide alone, 20 h; no unit in table, μM
Excerpt: (§1) Staphylococcus aureus CCUG 35601 (MRSA, Culture Collection, University of Gothenburg) and Staphylococcus aureus ATCC 29213 (MSSA, ATCC, Manassas, VA). Staphylococcus epidermidis ATCC 12228 (ATCC, Manassas, VA), RP62A, N15 and 10 clinical isolates of Staphylococcus epidermidis that have previously been characterized. Isolated Escherichia coli, Enterococcus faecium (including VRE), Pseudomonas aeruginosa, Klebsiella pneumoniae, Enterobacter spp and Acinetobacter baumannii were obtained from Orebro University hospital. Isolated Streptococcus mutans, Streptococcus constellatus and Streptococcus anginosus were obtained from Malmo University. The bacteria were grown on Luria-Bertani (LB) agar plates, supplemented with 5% defibrinated horse blood, and incubated at 37° C. overnight. Single colonies were inoculated into 5 ml of LB broth and incubated on a shaker (300 rpm) at 37° C. overnight. The bacterial concentration was determined by viable count and adjusted to correlate with approximately 10^9 CFU/ml.
(§2) The broth microdilution method was used to determine minimal inhibitory concentration (MIC) and minimal bactericidal concentration (MBC). Two-fold serial dilutions of the peptides were used and the final concentrations ranged from 0.097-50 μM. […] The effect of bacteriocin-antibiotic combinations was accomplished by using the same concentration series of antibiotics with a constant concentration of PLNC8 αβ (3.1 μM) in all the wells. […] All experiments were repeated at least three times.

S. epidermidis N15 = assay: Broth microdilution MIC/MBC; format: cell-based, Staphylococcus epidermidis; conditions: Table 1, peptide alone, 20 h; no unit in table, μM
Excerpt: as §1, §2

[3] = tested on: S. epidermidis ATCC 12228; assay: Broth microdilution MIC/MBC; format: cell-based, Staphylococcus epidermidis
Excerpt: as §1, §2

S. epidermidis RP62A = assay: Broth microdilution MIC/MBC; format: cell-based, Staphylococcus epidermidis; conditions: Table 1, peptide alone, 20 h; no unit in table, μM
Excerpt: as §1, §2

[4] = tested on: S. epidermidis 126 (hGISE strain); assay: Broth microdilution MIC/MBC; format: cell-based, Staphylococcus epidermidis; conditions: Table 3, peptide alone
Excerpt: as §1, §2

S. epidermidis 154 = assay: Broth microdilution MIC/MBC; format: cell-based, Staphylococcus epidermidis; conditions: Table 3, peptide alone
Excerpt: as §1, §2

[5] = tested on: S. epidermidis 157 (hGISE strain); assay: Broth microdilution MIC/MBC; format: cell-based, Staphylococcus epidermidis; conditions: Table 3, peptide alone
Excerpt: as §1, §2

S. epidermidis = assay: Broth microdilution MIC/MBC, strain not named; format: cell-based, Staphylococcus epidermidis
Excerpt: as §1, §2

[6] = tested on: antibiotic resistant bacteria; assay: Combination of PLNC8 αβ with antibiotics, summary over tested bacteria; format: cell-based; conditions: wide range of antibiotics
Experimental: as §2

HaCaT cells = assay: Scratch assay and ELISA on keratinocytes; format: cell-based, human; conditions: uninfected cells, 24 h
Experimental: (§3) Human keratinocytes (HaCaT) were cultured in Dulbecco's modified Eagle medium (DMEM, Fisher Scientific, New York, USA) supplemented with 10% FBS (FBS, Invitrogen Ltd, Paisley, UK) incubated in a stable environment at 95% air, 5% CO2 and 37° C. The cells were used at passages 1-20.
(§4) HaCaT cells were cultured overnight in a 24-well plate at a seed-count of 2×10^5 cells per well. […] Co-stimulation was performed by infection of human keratinocytes, in the presence or absence of PLNC8 αβ, for 24 h, or infection of the cells for 1 h followed by addition of different concentrations of PLNC8 αβ for 6 h. Furthermore, infection of keratinocytes, with or without PLNC8 αβ, were monitored in real-time for 72 hours using IncuCyte Live-cell Analysis System. Bacterial load was quantified by measuring the fluorescence of green fluorescent protein (GFP) and cell viability was determined by measuring the fluorescent dye Draq7 that stains nuclei of dead cells.
(§5) ELISA was performed on supernatants retrieved from human keratinocytes that were exposed to MSSA and PLNC8 αβ. The levels of CXCL8 (Human IL-8 ELISA MAX Deluxe, Nordic Biosite, Sweden) and IL-6 (Human IL-6 ELISA MAX Deluxe, Nordic Biosite, Sweden) were quantified according to the manufacturer's instructions.

[7] = tested on: HaCaT cells infected with MSSA; assay: Keratinocytes infected with MSSA: LDH, ELISA, RT-qPCR, scratch assay
Experimental: as §3, §4, §5

[8] = tested on: wounds infected with S. aureus; assay: Porcine wound model; format: in vivo, pig; conditions: PLNC8αβ 50 μM, every other day, 7 days
Excerpt: Three wounds were created per condition with the following conditions: control (PBS), […]/gentamicin and […]8 αβ. […] The pig was returned to the pen and monitored during recovery from anesthesia. […] This procedure was repeated every other day for seven days (a total of four doses of treatment of the infected wounds).

[9] = Table 1, peptide alone, 20 h, no unit in table, μM
[10] = infection 1 h, then peptide 6 h

B1: PLNC8 αβ: two-peptide class IIb bacteriocin of L. plantarum NC8: PLNC8 α (SEQ ID NO 1) with PLNC8 β (SEQ ID NO 2) (peptide)
alpha: DLTTKLWSSWGYYLGKKARWNLKHPYVQF
beta: SVPTSVYTLGIKILWSAYKHRKTIEKSFNKGFYH
modifications: Lactobacillus plantarum NC8
activity against Porphyromonas gingivalis (Porphyromonas gingivalis): efficient against the periodontal pathogen Porphyromonas gingivalis
disruption of biofilms [1]: efficiently disrupted the biofilms and killed the bacteria
cell proliferation [2]: stimulates cell proliferation
MBC (S. epidermidis 117): 12.5 µM
MIC (S. epidermidis 117): 12.5 µM
MBC (S. epidermidis N15): 6.25 µM
MIC (S. epidermidis N15): 6.25 µM
molar ratio PLNC8 α to PLNC8 β for inhibiting and killing ([3]; 20 h): molar ratio of 1:1 is most efficient at inhibiting and killing S. epidermidis; also recorded: ratios between 1:1 and 1:7 were also found to be effective
molar ratio PLNC8 α to PLNC8 β for inhibiting and killing ([3]; 20 h, listed as PLNC8αβ): molar ratio of 1:1 is most efficient at inhibiting and killing S. epidermidis
MBC [3, 9]: 12.5 µM
MIC [3, 9]: 6.25 µM
MBC ([3]; Table 2, peptide alone): 12.5 µM
MIC ([3]; Table 2, peptide alone): 6.25 µM
MBC (S. epidermidis RP62A): 6.25 µM
MIC (S. epidermidis RP62A): 6.25 µM
MBC [4]: 50 µM
MIC [4]: 12.5 µM
MBC (S. epidermidis 154): 12.5 µM
MIC (S. epidermidis 154): 6.25 µM
MBC [5]: >50 µM
MIC [5]: 12.5 µM
decrease of MIC and MBC of gentamicin by the peptides (S. epidermidis; S. epidermidis, FIG. 15): 15-30 fold
decrease of MIC and MBC of rifampicin by the peptides (S. epidermidis; S. epidermidis, FIG. 15): 100 fold
decrease of MIC and MBC of vancomycin by the peptides (S. epidermidis; S. epidermidis, FIG. 15): 2 fold
inhibition of S. epidermidis isolated from PJIs (S. epidermidis; incl. hGISE, FIG. 14): effectively inhibits different strains of S. epidermidis isolated from PJIs, including S. epidermidis (hGISE)
enhancement of the effects of antibiotics [6]: 2-130 fold
IL-6 and CXCL8 (HaCaT cells): not altered
wound healing (scratch assay) (HaCaT cells): promoted wound healing in vitro
S. aureus-mediated cytotoxicity (LDH) and cell viability [7, 10]: antagonized S. aureus-mediated cytotoxicity and inflammatory responses, and promoted cell viability
secretion of IL-6 and CXCL8 [7, 10]: significantly reduced
secretion of IL-6 and CXCL8 ([7]; infection with MSSA, 24 h): reduced bacteria-induced secretion of IL-6 and CXCL8
wound healing (scratch assay) ([7]; infection with MSSA, 24 h): promoted wound healing in vitro of human keratinocytes following an infection with S. aureus
infection and wound healing in vivo [8]: inhibited infection and promoted wound healing in vivo
